Assay results published in patent US20210388102A1 (IMMUNOGEN, published 2021).
Each block holds one binder with its values, some of them ahead of it.

Experiments:
[1] = target: T1, cynomolgus monkey ADAM9 (cynoADAM9) on cells (cynomolgus monkey, UniProt Q13443 206-819 (human entry)); experiment: FACS, 300-19 cells expressing cynomolgus ADAM9
T1 construct: also called Cho-K/cynoADAM9 clone 2; Cho-K/cynoADAM9 clone #16
T1 chain: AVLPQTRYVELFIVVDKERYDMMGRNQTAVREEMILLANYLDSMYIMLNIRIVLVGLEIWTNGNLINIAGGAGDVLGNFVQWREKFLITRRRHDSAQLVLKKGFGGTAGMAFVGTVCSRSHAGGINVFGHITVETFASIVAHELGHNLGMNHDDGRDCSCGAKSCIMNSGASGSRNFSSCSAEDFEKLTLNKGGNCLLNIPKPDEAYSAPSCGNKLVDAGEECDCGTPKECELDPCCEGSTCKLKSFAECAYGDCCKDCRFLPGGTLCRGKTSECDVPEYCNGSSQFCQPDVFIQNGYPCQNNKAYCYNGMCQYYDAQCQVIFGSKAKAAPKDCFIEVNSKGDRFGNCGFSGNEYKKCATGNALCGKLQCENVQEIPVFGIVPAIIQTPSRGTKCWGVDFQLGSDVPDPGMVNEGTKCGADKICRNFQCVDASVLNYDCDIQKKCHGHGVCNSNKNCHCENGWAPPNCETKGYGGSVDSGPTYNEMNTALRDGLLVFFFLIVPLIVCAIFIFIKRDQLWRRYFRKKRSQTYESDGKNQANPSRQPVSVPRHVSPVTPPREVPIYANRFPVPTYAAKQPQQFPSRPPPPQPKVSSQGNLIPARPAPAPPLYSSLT
Method: (§1) To evaluate the consequence of conjugation on antigen binding, the relative binding affinity of each anti-ADAM9 immunoconjugate and its respective unconjugated antibody to ADAM9 was determined by FACS analysis on 300-19 cells ectopically-expressing either human ADAM9 or cynomolgus ADAM9. Briefly, the ADAM9-expressing 300-19 cells were incubated with dilution series of anti-ADAM9 antibodies or immunoconjugates for 30 min @ 4° C. in FACS buffer (PBS, 0.1% BSA, 0.01% NaN₃), Samples were then washed and incubated with fluorescently-labeled secondary antibody for 30 minutes at 4° C. The normalized mean of fluorescence intensity at each concentration was plotted and the EC50 of binding was calculated using a nonlinear regression analysis (GraphPad Prims 4.0).

[2] = target: T1, cynomolgus monkey ADAM9 (cynoADAM9) on …; experiment: FACS, EC50 on 300-19 cynoADAM9 cells over EC50 on 300-19 huADAM9 cells
Method: as §1

[3] = target: T2, human ADAM9 (huADAM9) on cells (human, UniProt Q13443 206-819); experiment: cell-based or functional assay
T2 sequence: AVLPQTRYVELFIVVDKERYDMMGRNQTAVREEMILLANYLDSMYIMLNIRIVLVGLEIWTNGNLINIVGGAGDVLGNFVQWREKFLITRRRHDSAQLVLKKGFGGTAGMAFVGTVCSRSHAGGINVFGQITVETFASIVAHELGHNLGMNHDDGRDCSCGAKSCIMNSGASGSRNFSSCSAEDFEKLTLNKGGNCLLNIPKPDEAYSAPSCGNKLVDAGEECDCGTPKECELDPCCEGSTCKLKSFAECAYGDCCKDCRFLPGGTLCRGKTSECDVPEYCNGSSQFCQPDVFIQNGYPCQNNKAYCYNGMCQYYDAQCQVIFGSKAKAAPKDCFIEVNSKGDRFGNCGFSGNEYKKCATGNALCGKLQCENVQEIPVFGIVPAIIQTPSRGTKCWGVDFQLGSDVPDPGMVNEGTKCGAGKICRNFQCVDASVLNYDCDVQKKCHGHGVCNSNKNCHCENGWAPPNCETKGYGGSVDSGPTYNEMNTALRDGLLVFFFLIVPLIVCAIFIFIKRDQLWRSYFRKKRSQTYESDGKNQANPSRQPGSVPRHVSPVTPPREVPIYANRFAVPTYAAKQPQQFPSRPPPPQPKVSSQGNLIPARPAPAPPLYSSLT

[4] = target: T2, human ADAM9 (huADAM9) on cells; experiment: FACS, 300-19 cells expressing human ADAM9

- EC50 [1]: 4.4 nM
- cyno/human (ratio of EC50) [2]: 3
- EC50 [4]: 1.5 nM
B2: hMAB-A(2C.2)-sSPDB-DM4 (antibody, human IgG1, kappa, V domains shown)
VH: EVQLVESGGGLVKPGGSLRLSCAASGFTFSSYWMHWVRQAPGKGLEWVGEIIPIFGHTNYNEKFKSRFTISLDNSKNTLYLQMGSLRAEDTAVYYCARGGYYYYPRFGWLDYWGQGTTVTVSS
VL: DIVMTQSPDSLAVSLGERATISCKASQSVDYSGDSYMNWYQQKPGQPPKLLIYAASDLESGIPARFSGSGSGTDFTLTISSLEPEDFATYYCQQSHEDPFTFGQGTKLEIKR
modifications: lysine-linked DM4, sites not given; DM4 linked through sulfo-SPDB to lysine residues of the antibody, sites not given; average 3.2 mol DM4/mol antibody

- EC50 [1]: 6.6 nM
- cyno/human (ratio of EC50) [2]: 3
- EC50 [4]: 2.25 nM
B5: hMAB-A(2I.2)-DGN549 (antibody, human IgG1, kappa)
heavy: not shown
light: DIVMTQSPDSLAVSLGERATISCKASQSVDYSGDSYMNWYQQKPGQPPKLLIYAASDLESGIPARFSGSGSGTDFTLTISSLEPEDFATYYCQQSHEDPFTFGQGTKLEIKRTVAAPSVFIFPPSDEQLKSGTASVVCLLNNFYPREAKVQWKVDNALQSGNSQESVTEQDSKDSTYSLSSTLTLSKADYEKHKVYACEVTHQGLSSPVTKSFNRGEC
modifications: lysine-linked DGN549, sites not given; DGN549-L (compound D2) linked to lysine residues of the antibody, sites not given; average 2.8 mol DGN549/mol antibody

The next lines start with the binder.

B1: hMAB-A(2.2)-sSPDB-DM4 (antibody, human IgG1, kappa, V domains shown)
VH: EVQLVESGGGLVKPGGSLRLSCAASGFTFSSYWMHWVRQAPGKGLEWVGEIIPIFGHTNYNEKFKSRFTISLDNSKNTLYLQMGSLRAEDTAVYYCARGGYYYYGSRDYFDYWGQGTTVTVSS
VL: DIVMTQSPDSLAVSLGERATISCKASQSVDYSGDSYMNWYQQKPGQPPKLLIYAASDLESGIPARFSGSGSGTDFTLTISSLEPEDFATYYCQQSHEDPFTFGQGTKLEIKR
modifications: lysine-linked DM4, sites not given; DM4 linked through sulfo-SPDB to lysine residues of the antibody, sites not given; average 3.2 mol DM4/mol antibody
notes: also called huMAB-A(2.2)-sSPDB-DM4
- EC50 [1]: 13.3 nM
- cyno/human (ratio of EC50) [2]: 12
- Fold-specificity (IC50 control ADC/IC50 anti-ADAM9 ADC), A498 [3]: 27 fold
- Fold-specificity (IC50 control ADC/IC50 anti-ADAM9 ADC), DLD-1 [3]: 9 fold
- Fold-specificity (IC50 control ADC/IC50 anti-ADAM9 ADC), DU145 [3]: 25 fold
- Fold-specificity (IC50 control ADC/IC50 anti-ADAM9 ADC), HPAF2 [3]: 9 fold
- Fold-specificity (IC50 control ADC/IC50 anti-ADAM9 ADC), HS578T [3]: 16 fold
- Fold-specificity (IC50 control ADC/IC50 anti-ADAM9 ADC), IGROV1 [3]: 3 fold
- Fold-specificity (IC50 control ADC/IC50 anti-ADAM9 ADC), KATO III [3]: 5 fold
- Fold-specificity (IC50 control ADC/IC50 anti-ADAM9 ADC), NCI-H1703 [3]: 152 fold
- In Vitro Cytotoxicity (IC50 nM), A498 [3]: 0.119 nM
- In Vitro Cytotoxicity (IC50 nM), DLD-1 [3]: 2.73 nM
- In Vitro Cytotoxicity (IC50 nM), DU145 [3]: 0.57 nM
- In Vitro Cytotoxicity (IC50 nM), HPAF2 [3]: 0.622 nM
- In Vitro Cytotoxicity (IC50 nM), HS578T [3]: 0.119 nM
- In Vitro Cytotoxicity (IC50 nM), IGROV1 [3]: 4.08 nM
- In Vitro Cytotoxicity (IC50 nM), KATO III [3]: 1.15 nM
- In Vitro Cytotoxicity (IC50 nM), NCI-H1703 [3]: 0.024 nM
- EC50 [4]: 1.11 nM

B3: chMAB-A-sSPDB-DM4 (antibody, V domains shown)
VH: QVQLQQPGAELVKPGASVKLSCKASGYTFTSYWMHWVKQRPGQGLEWIGEIIPINGHTNYNEKFKSKATLTLDKSSSTAYMQLSSLASEDSAVYYCARGGYYYYGSRDYFDYWGQGTTLTVSS
VL: DIVLTQSPASLAVSLGQRATISCKASQSVDYDGDSYMNWYQQIPGQPPKLLIYAASDLESGIPARFSGSGSGTDFTLNIHPVEEEDAATYYCQQSHEDPFTFGGGTKLEIK
modifications: lysine-linked DM4, sites not given; DM4 linked through sulfo-SPDB to lysine residues of the antibody, sites not given; average 3.4 mol DM4/mol antibody
- EC50 [1]: 275 nM
- cyno/human (ratio of EC50) [2]: 290
- EC50 [4]: 0.95 nM

B4: chMAB-A-DGN549 (antibody, V domains shown)
VH: QVQLQQPGAELVKPGASVKLSCKASGYTFTSYWMHWVKQRPGQGLEWIGEIIPINGHTNYNEKFKSKATLTLDKSSSTAYMQLSSLASEDSAVYYCARGGYYYYGSRDYFDYWGQGTTLTVSS
VL: DIVLTQSPASLAVSLGQRATISCKASQSVDYDGDSYMNWYQQIPGQPPKLLIYAASDLESGIPARFSGSGSGTDFTLNIHPVEEEDAATYYCQQSHEDPFTFGGGTKLEIK
modifications: lysine-linked DGN549, sites not given; DGN549-L (compound D2) linked to lysine residues of the antibody, sites not given; average 2.7 mol DGN549/mol antibody
- EC50 [1]: 153 nM
- cyno/human (ratio of EC50) [2]: 123
- EC50 [4]: 1.24 nM
